Experiment [1] has as its target Ubiquitin, human, recombinant, His-tag (His6-Ub) (human, UniProt P0CG48 1-76). Description: MST.
Experiment [2] deals with Ubiquitin, human, recombinant (tag-free mono-Ub) (human, UniProt P0CG48 1-76). Description: MST.

B1: HDAC6-EGFP WT (full-length human histone deacetylase 6 fused to EGFP) (enzyme)
chain: MTSTGQDSTTTRQRRSRQNPQSPPQDSSVTSKRNIKKGAVPRSIPNLAEVKKKGKMKKLGQAMEEDLIVGLQGMDLNLEAEALAGTGLVLDEQLNEFHCLWDDSFPEGPERLHAIKEQLIQEGLLDRCVSFQARFAEKEELMLVHSLEYIDLMETTQYMNEGELRVLADTYDSVYLHPNSYSCACLASGSVLRLVDAVLGAEIRNGMAIIRPPGHHAQHSLMDGYCMFNHVAVAARYAQQKHRIRRVLIVDWDVHHGQGTQFTFDQDPSVLYFSIHRYEQGRFWPHLKASNWSTTGFGQGQGYTINVPWNQVGMRDADYIAAFLHVLLPVALEFQPQLVLVAAGFDALQGDPKGEMAATPAGFAQLTHLLMGLAGGKLILSLEGGYNLRALAEGVSASLHTLLGDPCPMLESPGAPCRSAQASVSCALEALEPFWEVLVRSTETVERDNMEEDNVEESEEEGPWEPPVLPILTWPVLQSRTGLVYDQNMMNHCNLWDSHHPEVPQRILRIMCRLEELGLAGRCLTLTPRPATEAELLTCHSAEYVGHLRATEKMKTRELHRESSNFDSIYICPSTFACAQLATGAACRLVEAVLSGEVLNGAAVVRPPGHHAEQDAACGFCFFNSVAVAARHAQTISGHALRILIVDWDVHHGNGTQHMFEDDPSVLYVSLHRYDHGTFFPMGDEGASSQIGRAAGTGFTVNVAWNGPRMGDADYLAAWHRLVLPIAYEFNPELVLVSAGFDAARGDPLGGCQVSPEGYAHLTHLLMGLASGRIILILEGGYNLTSISESMAACTRSLLGDPPPLLTLPRPPLSGALASITETIQVHRRYWRSLRVMKVEDREGPSSSKLVTKKAPQPAKPRLAERMTTREKKVLEAGMGKVTSASFGEESTPGQTNSETAVVALTQDQPSEAATGGATLAQTISEAAIGGAMLGQTTSEEAVGGATPDQTTSEETVGGAILDQTTSEDAVGGATLGQTTSEEAVGGATLAQTTSEAAMEGATLDQTTSEEAPGGTELIQTPLASSTDHQTPPTSPVQGTTPQISPSTLIGSLRTLELGSESQGASESQAPGEENLLGEAAGGQDMADSMLMQGSRGLTDQAIFYAVTPLPWCPHLVAVCPIPAAGLDVTQPCGDCGTIQENWVCLSCYQVYCGRYINGHMLQHHGNSGHPLVLSYIDLSAWCYYCQAYVHHQALLDVKNIAHQNKFGEDMPHPH
For B1, the Kd (commonly the equilibrium constant for the complex coming apart) worked out at 69 nM in experiment [1] and 1250 ± 147 nM in experiment [2].

The values are drawn from paper doi:10.1101/203372 (bioRxiv, 2017).
